Data: patent US20030152975A1

Molecular target: INF1 expressed in planta (FMV 35S promoter, PR1a signal peptide - INF1) (Phytophthora infestans (US-8 genotype))
Assay: cell-based or functional assay

Nhr1 expressed from the cosmid Nhr1 clone (tobacco genomic DNA in binary cosmid 04541)
necrosis percentage (average of 31 leaves), 78 hai: 11%
necrosis percentage (average of 31 leaves), 94 hai: 19.8%
necrosis percentage (average of 31 leaves), 102 hai: 26%
necrosis percentage (average of 31 leaves), 120 hai: 28.9%
necrosis percentage (average of 31 leaves), 140 hai: 31%
